Experimental data reported in article PMC13290226, “Intraflagellar transport protein IFT172 contains a C-terminal ubiquitin-binding U-box-like domain involved in ciliary signaling” (eLife, 2026).

What was measured:
Test in all cases: pull-down; GST-tagged HsIFT172 constructs (10 μM; 5 μM in Figure 4C) immobilised on GSH beads; prey 20 μM UbcH5a~Ub or 15-25 μM tetra-ubiquitin in 50 mM Tris pH 7.5, 100 mM NaCl, 1 mM DTT, 4 °C, 2 hr; eluted with glutathione; Coomassie and anti-ubiquitin western blot
Conditions in all cases: both partners purified
[1] = target: T1, UbcH5a_(C85S)~Ub conjugate, UbcH5a F62A (human, UniProt P51668 1-147; P0CG48 1-76, C85S | F62A, oxyester link from Ser85 (C85S) to ubiquitin | oxyester-linked to UbcH5a Ser85)
T1 construct: Homo sapiens UbcH5a, full length, C85S and F62A; Homo sapiens ubiquitin; source: in vitro charging reaction of proteins purified from E. coli, purified

[2] = target: T2, UbcH5a_(C85S)~Ub conjugate, UbcH5a A96D (human, UniProt P51668 1-147; P0CG48 1-76, C85S | A96D, oxyester link from Ser85 (C85S) to ubiquitin | oxyester-linked to UbcH5a Ser85)
T2 construct: Homo sapiens UbcH5a, full length, C85S and A96D; Homo sapiens ubiquitin; source: in vitro charging reaction of proteins purified from E. coli, purified

[3] = target: T3, UbcH5a_(C85S)~Ub conjugate (WT) (human, UniProt P51668 1-147; P0CG48 1-76, C85S, oxyester link from Ser85 (C85S) to ubiquitin | oxyester-linked to UbcH5a Ser85)
T3 construct: Homo sapiens UbcH5a (E2 enzyme), full length, active site cysteine mutated to serine; Homo sapiens ubiquitin; Protocol adapted from Middleton et al., 2014; also called WT UbcH5a~Ub conjugate; E2~Ub conjugate

binding result [1]: binds
binding result [2]: binds
binding result [3]: binds
B1: GST-tagged HsIFT172C2 (His-GST-TEV-HsIFT172_(1470-C)) (domain or fragment, human, UniProt Q9UG01 1470-1749, looked up)
chain: GAPANPQNFNIYKRIFTDMVSSPGTNCAEAYHSWADLRDVLFNLCENLVKSSEANSPAHEEFKTMLLIAHYYATRSAAQSVKQLETVAARLSVSLLRHTQLLPVDKAFYEAGIAAKAVGWDNMAFIFLNRFLDLTDAIEEGTLDGLDHSDFQDTDIPFEVPLPAKQHVPEAEREEVRDWVLTVSMDQRLEQVLPRDERGAYEASLVAASTGVRALPCLITGYPILRNKIEFKRPGKAANKDNWNKFLMAIKTSHSPVCQDVLKFISQWCGGLPSTSFSFQ
notes: also called GST-HsIFT172C2; source: E. coli BL21 (DE3), purified (Ni-NTA, Q anion exchange, SEC); not shown: GST, N-terminal, kept
